Entries after “also recorded” stand apart in the source; their conditions may differ.

Series [1] in a line: Serum sMDA-7 by ELISA. The series is classed as in vivo, nude mice. To be noted: animals implanted with 293 cells producing MDA-7. From the text: Mice were inoculated subcutaneously with A549 tumor cells in the lower right flank as described in Example 19. When the tumors had reached a size of 50 mm^3, 293 cells producing sMDA-7 (293-mda-7) or parental 293 cells (control) were encapsulated in matrigel and implanted subcutaneously at a site distant (upper right flank) from the tumor and the tumor growth was monitored. […] In comparison to the control, the growth of the tumors was suppressed by 50% after implantation of the encapsulated 293 cells producing MDA-7 protein. To confirm that the inhibitory effect was due to sMDA-7, serum samples from animals were tested for MDA-7 protein by Western blot analysis and ELISA. […] However, faint bands were also observed in the control that may be due to some cross-reactivity with serum proteins. The serum levels of sMDA-7 detected by ELISA was approximately 50 ng/ml.

Series [2] deals with bFGF-induced angiogenesis. In words: In vivo angiogenesis Matrigel assay. Also on record: species or system athymic nude mice. The protocol: To determine the anti-angiogenic activity of sMDA-7, an in vivo angiogenesis assay was performed. Briefly, sMDA-7 and bFGF were mixed with 500 μl of matrigel (Beckton and Dickenson) on ice and injected subcutaneously into athymic nude mice. Animals receiving matrigel containing only bFGF (60 ng) served as a positive control while animals receiving matrigel containing no growth factor served as a negative control. Each group consisted of 5 animals. Experiments were terminated on day 10 and the matrigel was harvested, photographed and subjected to hemoglobin analysis as described previously (Caudel et al., 2002).

Series [3] has as its system human PBMC. To be noted: cited from earlier work.
In series [4] the test system is HUVEC and HMVEC cells. In words: Endothelial cell differentiation (tube formation) assay. In kind it is cell-based, human. The protocol:
Endothelial cell differentiation (tube formation) assays were done using an in vitro angiogenesis assay kit (Chemicon, Temecula, Calif.). Briefly, HUVEC and HMVEC cells were grown to 80% confluency, collected, resuspended in growth medium and plated at a concentration of 2×10^4 cells/well in a 96-well plate coated with matrigel (Chemicon, Temecula, Calif.). To the wells, varying concentrations of MDA-7 protein were added and incubated for 24 h at 37° C. Wells that were not treated with MDA-7 protein served as a negative control. The ability of sMDA-7 to inhibit tube formation was determined and quantitated by counting the number of tubes under bright field microscopy. All samples were tested in duplicate. For comparative studies using MDA-7 and endostatin (Calbiochem), cells were plated as described above and exposed to varying concentration of the proteins. […] All other experimental procedures were the same as described above.

Series [5] concerns HUVEC cells. Briefly: Endothelial cell migration assay. The series is classed as cell-based, human. To be noted: VEGF 100 ng/ml. The protocol: Migration assays were performed using HUVEC cells. Cells were starved overnight in basal medium containing 0.5% fetal bovine serum (FBS), collected and re-suspended in the same medium and seeded at a concentration of 1×10^5 cells/well in the upper surface of a 24-well transwell insert with a filter size of 8 μm (Millipore, Cambridge, Mass.). The insert was placed in a 6-well plate that contained medium plus VEGF (100 ng/ml) or VEGF plus MDA-7 (10 ng/ml). The plates containing the transwell were incubated at 37° C. overnight to allow migration. The following day, the wells were disassembled, membranes fixed in crystal violet and the number of cells that had migrated to the lower wells were counted under high power magnification (×40).

Series [6] concerns tumor cells. Briefly: Tumor cell death by secreted MDA-7 supernatant and bystander mixing. In kind it is cell-based, human. Conditions: supernatant from 293 cells applied to tumor cell cultures. The protocol: This hypothesis was further tested by adding secreted MDA-7 to tumor cells and monitoring cell death. […] When culture supernatants were treated to minimize Ad-mda7 contamination, negligible cell death was induced by MDA-7 containing supernatants. When supernatant from 293 cells was applied to tumor cell cultures, only low levels of cell death were seen (approximately 10-15% above background levels) confirming that the secreted MDA-7, at least at the concentrations released by these cells, was not sufficient to elicit substantial cell death in tumor cells.
In that study, H460 cells were transduced with Ad-mda7 and immunostained with anti-MDA-7 antibody in conjunction with Annexin V staining. By confocal analysis, it was observed that some cells were Annexin V positive but were negative for MDA-7 expression. The frequency of Annexin V positive/MDA-7 negative cells was low and […] in multiple cells lines. Thus, to further evaluate the contribution of secreted MDA-7 in inducing apoptosis in neighboring cells, a series of bystander experiments were performed. Ad-mda7 transduced cells were mixed with native cells that had been previously labled with Ad-GFP and the cultures were scored for apoptosis in the GFP positive cells.

Series [7] has as its system STAT-3. Briefly: pSTAT-3 Western blot and immunofluorescence. The series is classed as cell-based, human. The protocol:
To determine the regulation of pSTAT-3 expression following the addition of sMDA-7, Western blot analysis was performed as described previously (Wang et al., 2002). Briefly, cells were harvested by trypsinization and resuspended in lysis buffer (62.5 mM Tris-HCl, 2% SDS, 10% glycerol, 4 M urea). Protein samples (50 μg) were each diluted into a 20 μl solution of lysis buffer and 5% 2-mercaptoethanol (Bio-Rad Laboratories, Hercules, Calif.) and heated in a water bath at 95° C. for 5 min. Protein extracts were then separated by 10% SDS-PAGE in a vertical-slab gel electrophoresis cell (Bio-Rad). The separated proteins were transferred from gel to nitrocellulose membrane (Hybond-ECL; Amersham Pharmacia Biotech, Buckinghamshire, England) and then blocked in a blocking solution (5% dry milk and 0.3% Tween 20 in PBS) for 1 hour. Membranes were incubated with the primary antibodies against pSTAT-3 (1:1000), and β-actin (1:10000). The membranes were then incubated with horseradish peroxidase-labeled secondary antibodies (Amersham). Finally, the proteins were visualized on enhanced chemiluminescence film (Hyperfilm, Amersham) by application of Amersham's Enhanced Chemiluminescence Western blotting detection system.
Activation of STAT-3 was also determined by immunofluorescence assay. HUVEC seeded in two-well chamber slides (1×10^4 cells/well) was treated with sMDA-7 (10 ng/ml) for 4 h, washed in PBS, fixed in cold acetic acid and stained for phosphorylated STAT-3 (pSTAT-3) using rabbit anti-human pSTAT-3 antibody (1:1000, Cell Signaling Technology, Beverly, Mass.) and rhodamine labeled anti-rabbit secondary antibody (1:5000; Molecular Probes, Eugene, Oreg.). Slides were mounted using anti-fade mounting reagent (Vector Laboratories). Pictures were taken 1-2 h after staining using a fluorescence microscope.
A general note: In western blotting, separated proteins are transferred to a membrane and probed.

Series [8] concerns HUVEC. In words: IP-10 and IFN-γ production by ELISA. In kind it is cell-based, human. Conditions: sMDA-7 treated HUVEC supernatant. The procedure:
HUVEC was seeded in six-well plates (1×10^5/well) and treated with sMDA-7 (10 ng/ml). Cell culture supernatant was collected at 6 h, 24 h, and 48 h after treatment, centrifuged at 1200 rpm, and analyzed for IP-10 and IFN-γ protein production using commercially available ELISA kits. Assays were performed as recommended by the manufacturer (R&D Systems, Minneapolis, Minn.). Cells treated with recombinant IFN-γ served as positive controls for IP-10 while cells treated with Ad-mda7 (3000 vp/cell) served as positive control for IFN-γ. Untreated cells served as negative controls in these experiments. Samples were analyzed in quadruplicate and data represented as the average value for each concentration of sMDA-7 tested.

B1: sMDA-7: secreted, glycosylated MDA-7 protein purified from supernatant of 293-mda-7 cells (protein)
chain: AQGQEFHFGPCQVKGVVPQKLWEAFWAVKDTMQAQDNITSARLLQQEVLQNVSDAESCYLVHTLLEFYLKTVFKNYHNRTVEVRTLKSFSTLANNFVLIVSQLQPSQENEMFSIRDSAHRRFLLFRRAFKQLDVEAALTKALGEVDILLTWMQKFYKL
Turning to B1, the “serum levels of sMDA-7 detected by ELISA” value in series [1] is on record as “approximately 50 ng/ml”. For the same molecule, the “hemoglobin content in the matrigel” value in series [2] (day 10, vs no bFGF, only bFGF, or endostatin) is recorded as “very significant (p=0.0001) inhibitory effect; also recorded: significant reduction in hemoglobin content”. Further, the “bFGF-induced angiogenesis in matrigel” value in series [2] (sMDA-7 10 ng, 10 days after implantation) is listed as “inhibition of bFGF-induced angiogenesis”. Besides, in series [3], the cytokine induction entry was “causes the induction of IFN-γ, IL-6 and TNF-α”. Besides, the “concentration giving complete abrogation of tubular formation” value in series [4] (HUVEC and HMVEC) was 10 ng/mL. The “inhibition of endothelial tube formation” value in series [4] (HUVEC and HMVEC, 24 h) is reported as “significant inhibition of endothelial tube formation”. For the same molecule, the “tubular formation in the presence of IL-10R neutralizing antibody” value in series [4] (HUVEC, antibody 5 ng, sMDA-7 5 ng) was “able to inhibit tubular formation”. Besides, the tube formation entry in series [4] (HUVEC, sMDA-7 5 ng) was “complete inhibition of tube formation”. The “amount giving complete inhibition of migration” value in series [5] (MDA-7) is 50 ng. The “endothelial cell migration induced by VEGF” value in series [5] (sMDA-7 10 ng/ml) is listed as “blocked endothelial cell migration”. Besides, the “cell death above background levels” value in series [6] is reported as 10-15%. The pSTAT-3 protein expression result in series [7] (HUVEC and HMVEC, Western blot) is on record as “significant increase in the phosphorylated form of STAT-3 (pSTAT-3) protein expression as early as 4 h”. In addition, in series [7] (HUVEC, immunofluorescence), the “nuclear localization of pSTAT-3” value is “increased nuclear localization of pSTAT-3 protein”. Moreover, the “time of maximal pSTAT-3 expression” value in series [7] (after treatment) worked out at 24 h. For the same molecule, in series [8], the IFN-γ induction entry is on record as “IP-10 but not IFN-γ was induced”. The “amount of IP-10 produced” value in series [8] (various time points) lay in the range of 15 to 32 pg/mL.

Source of the values: patent US20040009939A1, “Methods of enhancing immune induction involving MDA-7” (Board of Regent, The University of Texas System, priority 2002, published 2004).
